In patent publication US20030175288A1 (GREEN PEPTIDE, published 2003):

Target: T1, HLA-A0201 molecule on T2 cells (human)
T1 construct: MHC class I molecule without peptide on T2 cells; detected with anti-HLA-A2 mAb BB7.2; also called HLA-A2 molecule
Experiment: T2 cells with 10 µM peptide, HLA-A2 stained with mAb BB7.2, flow cytometry (relative MFI)
Description: Binding activity of the peptide to the HLA-A0201 molecule was tested using a T2 cell mutant strain (Cancer Res., 54:1071-1076, 1994.) The T2 cell expresses the HLA-A2 molecule on a cell surface without binding to a peptide, because of deficiency of TAP. Specifically, the synthesized peptide (10 μM) and the T2 cells were incubated at 26° C. for 3 h and, subsequently, incubated in 5% CO₂ and 95% air at 37° C. for 3 h. Thus, T2 cells, on whose surface the peptide was presented by HLA-A2, were obtained.

Binder	MFI
ILPRKHHRI (synthetic peptide; also called gene 1 (UBE2V) 208-216) [P5]	637
LLLLARWEDT (synthetic peptide; also called gene 1 (UBE2V) 64-73) [P2]	607
ALVEFEDVL (synthetic peptide) [P6]	819
CLYGNVEKV (synthetic peptide; also called gene 2 (HNRPL) 404-412) [P7]	783
LIADFLSGL (synthetic peptide; also called gene 1 (UBE2V) 85-93) [P3]	910
LLQDWHVIL (synthetic peptide) [P4]	1010
ILGELREKV (synthetic peptide; also called gene 3 (WHSC2) 141-149) [P11]	1090
RLQEWCSVI (synthetic peptide; positions counted on the gene 1 product; also called UBE2V 43-51; gene 1 43-51) [P1]	571
NVLHFFNAPL (synthetic peptide; also called gene 2 (HNRPL) 501-510) [P9]	832

Further lines, results first:

MFI	Binder
780	MLPLECQYL (synthetic peptide; also called gene 3 (WHSC2) 157-165) [P12]
591	RIIYDRKFL (synthetic peptide; also called EIF4EBP1 51-59; gene 4 51-59) [P14]
656	TLLRKERGV (synthetic peptide; also called gene 3 (WHSC2) 267-275) [P13]
775	QQLCVYWTV (synthetic peptide) [P19]
660	GLLFLHTRT (synthetic peptide; also called gene 5 (ppMAPkkk) 294-302) [P17]
887	QILKGLLFL (synthetic peptide; also called gene 5 (ppMAPkkk) 290-298) [P16]
657	DLLSHAFFA (synthetic peptide) [P18]
789	IIYDRKFLM (synthetic peptide; also called gene 4 (EIF4EBP1) 52-60) [P15]
